# Results reported in PMC10491584, “Structural convergence endows nuclear transport receptor Kap114p with a transcriptional repressor function toward TATA-binding protein” (Nature Communications, 2023).
# T1: Kap114p (Q597A) (S. cerevisiae, UniProt P53067 1-1004, Q597A)
# T1 construct: Kap114p, S. cerevisiae, full length with Q597A; also called GST-Kap114p (Q597); source: E. coli Rosetta, purified (GST resin, MonoQ, Superdex 200)
# T1 sequence (looked up): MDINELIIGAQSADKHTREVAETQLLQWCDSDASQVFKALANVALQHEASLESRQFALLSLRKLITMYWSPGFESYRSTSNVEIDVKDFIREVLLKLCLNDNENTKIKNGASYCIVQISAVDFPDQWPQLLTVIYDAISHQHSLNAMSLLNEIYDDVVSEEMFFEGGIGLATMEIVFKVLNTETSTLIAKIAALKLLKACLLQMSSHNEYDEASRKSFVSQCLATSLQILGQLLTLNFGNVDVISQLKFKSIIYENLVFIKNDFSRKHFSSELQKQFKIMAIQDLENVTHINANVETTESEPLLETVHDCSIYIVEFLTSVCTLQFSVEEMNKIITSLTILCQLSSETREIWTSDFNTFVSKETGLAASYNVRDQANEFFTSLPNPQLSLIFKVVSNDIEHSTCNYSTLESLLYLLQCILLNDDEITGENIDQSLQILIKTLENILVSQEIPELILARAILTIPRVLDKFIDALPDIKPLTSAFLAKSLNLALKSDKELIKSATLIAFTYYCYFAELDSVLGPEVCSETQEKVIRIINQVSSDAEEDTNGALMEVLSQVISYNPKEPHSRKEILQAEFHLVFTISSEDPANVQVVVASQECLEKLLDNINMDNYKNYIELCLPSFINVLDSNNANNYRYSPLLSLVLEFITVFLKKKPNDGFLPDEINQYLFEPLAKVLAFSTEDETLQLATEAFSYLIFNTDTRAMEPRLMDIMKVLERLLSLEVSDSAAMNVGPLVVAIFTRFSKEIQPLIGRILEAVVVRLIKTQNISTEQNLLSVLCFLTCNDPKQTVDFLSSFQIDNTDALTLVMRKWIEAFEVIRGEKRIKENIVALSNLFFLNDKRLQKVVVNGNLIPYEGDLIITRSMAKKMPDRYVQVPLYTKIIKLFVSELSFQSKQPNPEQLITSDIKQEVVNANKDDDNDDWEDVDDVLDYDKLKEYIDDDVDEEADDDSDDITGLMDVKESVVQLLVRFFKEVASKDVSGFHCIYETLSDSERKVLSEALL
# T2: Kap114p wild type (S. cerevisiae, UniProt P53067 1-1004)
# T2 construct: Kap114p (karyopherin-β), S. cerevisiae, full length, amplified from total genomic DNA; GST tag followed by a PreScission site (modified pGEX6p1); PreScission protease added during dialysis; also called Kap114p WT; GST-Kap114p (plasmid pGEX-6P-1-Kap114); source: E. coli Rosetta, purified (GST resin, MonoQ, Superdex 200)
# T2 sequence (looked up): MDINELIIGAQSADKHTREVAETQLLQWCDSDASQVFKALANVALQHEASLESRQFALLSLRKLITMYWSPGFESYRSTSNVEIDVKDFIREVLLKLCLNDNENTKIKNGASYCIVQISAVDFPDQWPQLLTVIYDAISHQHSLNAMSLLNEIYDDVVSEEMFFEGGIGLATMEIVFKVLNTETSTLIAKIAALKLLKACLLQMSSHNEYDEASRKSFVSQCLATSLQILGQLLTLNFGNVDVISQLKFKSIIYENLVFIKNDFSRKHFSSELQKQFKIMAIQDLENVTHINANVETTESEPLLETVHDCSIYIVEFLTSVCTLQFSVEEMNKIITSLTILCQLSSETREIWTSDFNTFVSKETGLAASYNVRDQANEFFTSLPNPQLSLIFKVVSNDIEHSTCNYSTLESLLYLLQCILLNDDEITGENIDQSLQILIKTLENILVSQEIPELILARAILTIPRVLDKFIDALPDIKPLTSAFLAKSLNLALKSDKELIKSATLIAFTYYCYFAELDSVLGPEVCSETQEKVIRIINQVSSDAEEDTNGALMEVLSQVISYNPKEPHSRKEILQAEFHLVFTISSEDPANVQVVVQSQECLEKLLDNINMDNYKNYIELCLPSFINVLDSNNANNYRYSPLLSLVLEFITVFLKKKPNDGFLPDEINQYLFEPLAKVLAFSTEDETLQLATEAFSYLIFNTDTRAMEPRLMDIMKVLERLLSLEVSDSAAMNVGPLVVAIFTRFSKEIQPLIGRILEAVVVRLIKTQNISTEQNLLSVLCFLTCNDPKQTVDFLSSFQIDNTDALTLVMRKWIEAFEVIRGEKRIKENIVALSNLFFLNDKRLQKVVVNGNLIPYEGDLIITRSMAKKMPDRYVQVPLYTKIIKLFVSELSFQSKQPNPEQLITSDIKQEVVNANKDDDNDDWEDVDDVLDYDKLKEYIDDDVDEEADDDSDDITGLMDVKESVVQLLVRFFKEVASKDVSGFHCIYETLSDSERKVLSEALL
# T3: Kap114p (wild type) (S. cerevisiae, UniProt P53067 1-1004)
# T3 construct: Kap114p, S. cerevisiae, full length, amplified from total genomic DNA; GST tag removed with PreScission protease; also called karyopherin-β Kap114p; source: E. coli Rosetta, purified (GST resin, MonoQ, Superdex 200); not shown: GST, N-terminal, cleaved
# T3 sequence (looked up): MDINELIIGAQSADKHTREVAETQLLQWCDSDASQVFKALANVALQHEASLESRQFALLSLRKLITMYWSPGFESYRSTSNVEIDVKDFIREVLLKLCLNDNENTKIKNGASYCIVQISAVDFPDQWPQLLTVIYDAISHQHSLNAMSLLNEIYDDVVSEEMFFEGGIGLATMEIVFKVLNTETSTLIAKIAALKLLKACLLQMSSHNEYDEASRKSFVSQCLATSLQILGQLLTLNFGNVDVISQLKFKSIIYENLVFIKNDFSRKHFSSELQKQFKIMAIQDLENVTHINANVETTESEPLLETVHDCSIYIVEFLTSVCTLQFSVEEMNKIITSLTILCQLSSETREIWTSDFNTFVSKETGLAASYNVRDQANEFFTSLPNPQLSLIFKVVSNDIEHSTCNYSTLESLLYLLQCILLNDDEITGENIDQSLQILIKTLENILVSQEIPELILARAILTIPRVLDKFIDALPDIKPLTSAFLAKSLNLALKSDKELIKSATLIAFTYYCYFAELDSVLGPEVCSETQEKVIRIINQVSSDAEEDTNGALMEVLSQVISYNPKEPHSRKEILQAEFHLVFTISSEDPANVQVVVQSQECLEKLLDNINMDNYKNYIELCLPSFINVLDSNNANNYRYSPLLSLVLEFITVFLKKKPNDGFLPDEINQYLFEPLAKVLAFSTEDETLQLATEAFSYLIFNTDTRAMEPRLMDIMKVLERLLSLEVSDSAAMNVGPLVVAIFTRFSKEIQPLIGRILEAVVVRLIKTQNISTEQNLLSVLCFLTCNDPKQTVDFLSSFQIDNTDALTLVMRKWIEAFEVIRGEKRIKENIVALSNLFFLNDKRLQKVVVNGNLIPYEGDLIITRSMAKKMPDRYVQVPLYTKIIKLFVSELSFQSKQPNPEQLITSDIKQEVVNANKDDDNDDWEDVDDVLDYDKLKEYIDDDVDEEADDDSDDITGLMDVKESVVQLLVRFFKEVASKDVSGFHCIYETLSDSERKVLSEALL
# T4: Kap95p (S. cerevisiae, UniProt Q06142 1-861)
# T4 construct: Kap95p, S. cerevisiae, full length; The purification paragraph is headed for Kap114p proteins; that Kap95p was treated alike is surmised; source: E. coli, GST-tagged construct in modified pGEX6p1; purification told for the GST-tagged proteins; not shown: GST, N-terminal, cleaved
# T4 sequence (looked up): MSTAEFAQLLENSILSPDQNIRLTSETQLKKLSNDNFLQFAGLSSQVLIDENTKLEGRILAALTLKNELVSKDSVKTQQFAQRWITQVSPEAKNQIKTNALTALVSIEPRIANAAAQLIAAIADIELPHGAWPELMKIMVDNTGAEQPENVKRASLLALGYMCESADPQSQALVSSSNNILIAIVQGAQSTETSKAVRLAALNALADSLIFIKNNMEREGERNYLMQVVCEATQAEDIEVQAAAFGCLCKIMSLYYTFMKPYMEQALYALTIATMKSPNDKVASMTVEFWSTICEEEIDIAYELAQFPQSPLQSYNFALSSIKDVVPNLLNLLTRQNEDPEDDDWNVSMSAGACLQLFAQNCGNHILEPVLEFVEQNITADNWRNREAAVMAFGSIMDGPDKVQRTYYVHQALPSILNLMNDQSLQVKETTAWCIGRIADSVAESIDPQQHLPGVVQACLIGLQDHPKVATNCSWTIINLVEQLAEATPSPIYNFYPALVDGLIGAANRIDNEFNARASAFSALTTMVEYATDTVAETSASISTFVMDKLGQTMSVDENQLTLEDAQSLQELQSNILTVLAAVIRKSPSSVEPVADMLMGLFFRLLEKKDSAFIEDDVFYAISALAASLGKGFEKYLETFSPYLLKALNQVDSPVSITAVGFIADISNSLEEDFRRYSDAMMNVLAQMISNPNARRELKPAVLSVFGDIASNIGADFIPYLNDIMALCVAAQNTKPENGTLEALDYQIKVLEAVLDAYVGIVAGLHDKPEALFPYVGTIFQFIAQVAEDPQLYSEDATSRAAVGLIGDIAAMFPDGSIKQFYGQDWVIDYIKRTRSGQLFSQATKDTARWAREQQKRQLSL
# Key:
# Conditions in all cases: both partners purified
# Kap114p (Q597A) [1] = molecular target: T1, Kap114p (Q597A); assay: ITC; MicroCal iTC200, 25 °C, 20 mM HEPES pH 7.4, 150 mM NaCl; low concentration: 25 µM wild type or mutant Kap114p in the sample cell, 250 µM wild type or mutant yTBPC in the syringe; triplicate
# Kap114p (Q597A) [2] = molecular target: T1, Kap114p (Q597A); assay: ITC; MicroCal iTC200, 25 °C, 20 mM HEPES pH 7.4, 150 mM NaCl; high concentration: 50 µM wild type or mutant Kap114p in the sample cell, 500 µM wild type or mutant yTBPC in the syringe; triplicate
# Kap114p wild type = molecular target: T2, Kap114p wild type; assay: as above
# Kap114p (wild type) = molecular target: T3, Kap114p (wild type); assay: ITC; MicroCal iTC200, 25 °C, 20 mM HEPES pH 7.4, 150 mM NaCl; 25 or 50 μM wild type or mutant Kap114p in the cell, 250 or 500 μM wild-type or mutant yTBP^C in the syringe; triplicate
# Kap95p = molecular target: T4, Kap95p; assay: ITC; Kap95p with wild type or R141A yTBP^C; which protein was in the cell is not told for Kap95p; n = 3
binder,measurement,setting,value
"yTBP^C (R141A) (domain or fragment, S. cerevisiae, UniProt P13393 61-240, looked up, also called yTBP(R141A); His-yTBP (61-240) (R141A); source: E. coli Rosetta, purified (Ni-NTA, HiTrap SP, Superdex 75); not shown: His6, N-terminal, cleaved) SGIVPTLQNIVATVTLGCRLDLKTVALHARNAEYNPKRFAAVIMRIREPKTTALIFASGKMVVTGAKSEDDSKLASRKYAAIIQKIGFAAKFTDFKIQNIVGSCDVKFPIRLEGLAFSHGTFSSYEPELFPGLIYRMVKPKIVLLIFVSGKIVLTGAKQREEIYQAFEAIYPVLSEFRKM",Kd,Kap114p (Q597A) [1],165 nM
same,Kd,Kap114p (Q597A) [2],316 nM
same,Kd,Kap114p wild type,255 nM
"yTBP^C (R141A) (domain or fragment, S. cerevisiae, UniProt P13393 61-240, looked up, 61-240, point mutant R141A; also called yTBP(R141A); source: E. coli Rosetta, purified (Ni-NTA, HiTrap SP, Superdex 75); not shown: His6, N-terminal, cleaved) SGIVPTLQNIVATVTLGCRLDLKTVALHARNAEYNPKRFAAVIMRIREPKTTALIFASGKMVVTGAKSEDDSKLASRKYAAIIQKIGFAAKFTDFKIQNIVGSCDVKFPIRLEGLAFSHGTFSSYEPELFPGLIYRMVKPKIVLLIFVSGKIVLTGAKQREEIYQAFEAIYPVLSEFRKM",fold reduction of the binding affinity against wild type yTBP^C,Kap114p (wild type),> 200 fold
same,Kd,Kap95p,~9700 nM
